According to publication PMC3084661:
Where two headings read alike, the source gives them in different places.

Key:
Assay in all cases: FRET or BRET
[1] = target: S. oneidensis RNA polymerase core (α, β, β′, ω), assembled in vivo (Shewanella oneidensis MR-1) (UniProt Q8EK47)
[2] = target: S. oneidensis RNA polymerase core (α, β, β′, ω), assembled in vivo (Shewanella oneidensis MR-1) (UniProt Q8EK47); remark: listed apart in the source
[3] = target: S. oneidensis RNA polymerase core (α, β, β′, ω), assembled in vivo (Shewanella oneidensis MR-1) (UniProt Q8EK47); remark: listed apart in the source

σ^70 retention half-life [1]: 80 min | initial σ^70 retention (%) [2]: 59% | σ^70 retention half-life [2]: 75 min | initial σ^70 retention (%) [3]: 45% | σ^70 retention half-life [3]: 43 min
Substance: Cy3B-labelled single-cysteine S. oneidensis σ^70 derivative N399C (from UniProt Q8EHE1 1-616) (natural protein)
